Experimental findings from PMC2955050 are described below.

Non-standard residues stand in square brackets, D forms with d. No end group written: not given here. pY = N[C@@H](Cc1ccc(OP(=O)(O)O)cc1)C(=O)O

The target in this assay is recombinant DLAR catalytic domain (Drosophila).
On to TAEPD[pY]GALYE [Cuticle peptide TAEPD(pY)GALYE], for which the Kcat/Km of dephosphorylation of the peptide by DLAR (malachite green phosphatase assay) turned out to be 300000 sec^-1M^-1.

With CDDS[pY]FGNKC (cysteine pairing not given here) [Myospheroid peptide CDDS(pY)FGNKC], the Kcat/Km of dephosphorylation of the peptide by DLAR (malachite green phosphatase assay) was 143000 sec^-1M^-1.

For the molecule VIGD[pY]VCRLCK (cysteine pairing not given here) [Nervous Fingers peptide VIGD(pY)VCRLCK], the Kcat/Km of dephosphorylation of the peptide by DLAR (malachite green phosphatase assay) came out at 196000 sec^-1M^-1.

With TRDI[pY]ETDYYRK [Insulin receptor peptide TRDI(pY)ETDYYRK], the Kcat/Km of dephosphorylation of the peptide by DLAR (malachite green phosphatase assay) turned out to be 264000 sec^-1M^-1.

Take RDDT[pY]TAHAG [Abelson peptide RDDT(pY)TAHAG]: the Kcat/Km of dephosphorylation of the peptide by DLAR (malachite green phosphatase assay) was found to be 180000 sec^-1M^-1.
